Measurements: patent publication US20260258125A1 (NONA BIOSCIENCES SUZHOU, published 2026)

B1: PR303561 (Tusamitamab) (antibody, human IgG1, kappa, V domains shown)
VH: EVQLQESGPGLVKPGGSLSLSCAASGFVFSSYDMSWVRQTPERGLEWVAYISSGGGITYAPSTVKGRFTVSRDNAKNTLYLQMNSLTSEDTAVYYCAAHYFGSSGPFAYWGQGTLVTVSS
VL: DIQMTQSPASLSASVGDRVTITCRASENIFSYLAWYQQKPGKSPKLLVYNTRTLAEGVPSRFSGSGSGTDFSLTISSLQPEDFATYYCQHHYGTPFTFGSGTKLEIKR
notes: also called PR003561; SAR408377
B2: PR303563 (Tinurilimab) (antibody, human IgG2, kappa, V domains shown)
VH: QVTLRESGPALVKPTQTLTLTCTFSGFSLSTYGIGVGWIRQPPGKALEWLAHIWWNDNKYYSTSLKTRLTISKDTSKNQVVLTMTNMDPVDTATYYCARISLPYFDYWGQGTTLTVSS
VL: DIQLTQSPSFLSASVGDRVTITCKASQNVGTAVAWYQQKPGKAPKLLIYSASNRYTGVPSRFSGSGSGTEFTLTISSLQPEDFATYYCQQYSSYPLTFGGGTKVEIKR
notes: also called BAY-1834942

What was measured:
[1] = biological target: T1, recombinant human CEACAM6 Fc-tag protein (human, UniProt P40199 35-320, limits assumed); test: Octet (BLI), antibody on AHC sensor, antigen in solution
T1 construct: also called huCEACAM6 (Octet); not shown: Fc tag
T1 sequence (looked up): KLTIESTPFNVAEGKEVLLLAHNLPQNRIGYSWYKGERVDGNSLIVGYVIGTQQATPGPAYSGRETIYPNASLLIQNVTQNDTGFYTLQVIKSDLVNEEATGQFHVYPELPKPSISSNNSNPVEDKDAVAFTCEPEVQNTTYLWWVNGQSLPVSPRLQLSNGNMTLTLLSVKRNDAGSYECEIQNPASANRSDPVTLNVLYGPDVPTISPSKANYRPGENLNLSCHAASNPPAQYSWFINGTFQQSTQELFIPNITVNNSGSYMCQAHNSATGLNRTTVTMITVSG
Procedure: Binding kinetics of recombinant anti-CEACAM5/6 antibodies to CEACAM5 and CEACAM6 were analyzed by Octet. In Octet analysis, recombinant human CEACAM5 Fc-tag protein (#Uniprot P06731) or CEACAM6 Fc-tag protein (Uniprot P40199) was serially diluted with 1×kinetic buffer (Fortebio). Anti-CEACAM5/6 dual-binding antibodies were diluted to 5 μg/mL. Then diluted antibodies, antigen and regeneration buffer (10 mM glycine pH 1.75) were added to 96-well plates (Greiner). Rate constants for association and dissociation were measured using AHC sensor (Fortebio). The sensor surface was regenerated after each binding experiment with regeneration buffer. The traces were processed using ForteBio Data Analysis Software (version 8.0, Pall ForteBio, CA, USA).

[2] = biological target: T2, cynomolgus CEACAM5 on CHO-K1 cells (CHOK1-cyno CEACAM5 cells) (cynomolgus monkey); test: flow cytometry on CHOK1-cyno CEACAM5 cells
T2 construct: whole, on cells; also called CHOK1-cynoCECAM5
Procedure: (§1) Binding of recombinant anti-CEACAM5/6 dual-binding antibodies against human or cynomolgus CEACAM5 or CEACAM6 stable cells were detected by flow cytometry. […] Anti-CEACAM5/6 dual-binding antibodies were incubated with the stable cell lines. Anti-CEACAM5/6 dual-binding antibodies were serially diluted in staining buffer (PBS containing 2% FBS). 50 μL of diluted antibody solution was added to 50 μL of cell suspension containing 1-2×10⁵ cells and incubated at 4° C. for 1 hour. […] After 1-hour incubation at 4° C., cells were washed twice and run on a flow cytometer. […] The results were shown in FIGS. 8-10 and Tables 6 below.

[3] = biological target: T3, cyno CEACAM5 protein (cynomolgus monkey); test: ELISA, antigen coated on plate
T3 construct: also called cynomolgus CEACAM5
From the text: (§2) Binding of recombinant anti-CEACAM5/6 dual-binding monoclonal antibodies against human and cynomolgus CEACAM5, and human CEACAM6 (Uniprot P40199), human CEACAM 1, 3 (NP_001806.2, Sino Biological 11933-H08H) and 8 (NP_001807.2, Acro Bio CE8-H5224) were detected by ELISA. Anti-CEACAM5/6 dual-antibodies were serially diluted in staining buffer (PBS containing 2% FBS). […] ELISA was used to test the binding between antibody containing supernatant or purified antibodies and the antigen. Briefly, the antigens were coated on a 96-well high binding plate overnight at 4° C. The plate was washed with PBST three times, incubated with blocking buffer (2% Bovine Serum Albumin) for one hour at 37° C., washed with PBST three times and incubated with antibody containing supernatant or purified antibodies at desired dilutions or concentrations for one hour at 37° C. A secondary antibody, anti-human Fc-HRP (Jackson Laboratory, 109-035-097) was used for detection of the targeted antibody. TMB and stopping solution were used for detection of HRP signal. The HRP signal was read on a SPECTRAMAX plate reader.

[4] = biological target: T4, human CEACAM8 protein (human, UniProt P31997 35-320); test: ELISA, antigen coated on plate
T4 construct: Bought protein; also called huCEACAM8
T4 sequence (looked up): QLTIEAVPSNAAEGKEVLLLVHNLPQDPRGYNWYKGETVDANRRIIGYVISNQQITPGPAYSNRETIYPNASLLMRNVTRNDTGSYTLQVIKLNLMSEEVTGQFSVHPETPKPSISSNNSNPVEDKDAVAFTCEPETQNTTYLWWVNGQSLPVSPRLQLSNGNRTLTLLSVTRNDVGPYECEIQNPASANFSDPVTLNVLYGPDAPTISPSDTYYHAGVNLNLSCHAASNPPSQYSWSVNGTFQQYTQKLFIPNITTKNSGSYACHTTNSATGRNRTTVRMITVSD
From the text: as §2

[5] = biological target: T5, human CEACAM6 protein (human, UniProt P40199 35-320); test: ELISA, antigen coated on plate
T5 construct: also called huCEACAM6
T5 sequence (looked up): T1 sequence (looked up)
From the text: as §2

[6] = biological target: T6, human CEACAM1 protein (human, UniProt P13688 35-428); test: ELISA, antigen coated on plate
T6 construct: also called huCEACAM1
T6 sequence (looked up): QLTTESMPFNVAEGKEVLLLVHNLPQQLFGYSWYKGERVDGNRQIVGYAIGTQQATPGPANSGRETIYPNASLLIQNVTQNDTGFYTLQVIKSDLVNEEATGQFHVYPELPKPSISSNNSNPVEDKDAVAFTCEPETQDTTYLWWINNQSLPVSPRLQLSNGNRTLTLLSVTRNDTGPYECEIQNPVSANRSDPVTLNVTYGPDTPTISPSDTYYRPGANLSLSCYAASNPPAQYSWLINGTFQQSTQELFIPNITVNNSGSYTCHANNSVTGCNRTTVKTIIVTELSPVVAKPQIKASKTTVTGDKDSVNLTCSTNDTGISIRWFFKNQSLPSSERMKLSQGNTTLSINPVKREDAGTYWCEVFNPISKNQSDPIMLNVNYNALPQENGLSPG
From the text: as §2

[7] = biological target: T7, human CEACAM3 protein (human, UniProt P40198 35-155); test: ELISA, antigen coated on plate
T7 construct: Bought protein; also called huCEACAM3
T7 sequence (looked up): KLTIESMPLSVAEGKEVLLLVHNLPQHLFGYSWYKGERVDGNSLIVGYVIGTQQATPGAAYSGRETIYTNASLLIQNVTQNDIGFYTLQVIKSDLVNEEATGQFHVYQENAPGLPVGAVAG
From the text: as §2

[8] = biological target: T8, human CEACAM6 on 293T cells (293T-huCEACAM6 cells) (human, UniProt P40199 35-320); test: cell-based or functional assay
T8 sequence (looked up): T1 sequence (looked up)

[9] = biological target: T8, human CEACAM6 on 293T cells …; test: flow cytometry on 293T-huCEACAM6 cells
Procedure: as §1

[10] = biological target: T9, human CEACAM5 protein (human, UniProt P06731 35-685); test: ELISA, antigen coated on plate
T9 construct: also called huCEACAM5
T9 sequence (looked up): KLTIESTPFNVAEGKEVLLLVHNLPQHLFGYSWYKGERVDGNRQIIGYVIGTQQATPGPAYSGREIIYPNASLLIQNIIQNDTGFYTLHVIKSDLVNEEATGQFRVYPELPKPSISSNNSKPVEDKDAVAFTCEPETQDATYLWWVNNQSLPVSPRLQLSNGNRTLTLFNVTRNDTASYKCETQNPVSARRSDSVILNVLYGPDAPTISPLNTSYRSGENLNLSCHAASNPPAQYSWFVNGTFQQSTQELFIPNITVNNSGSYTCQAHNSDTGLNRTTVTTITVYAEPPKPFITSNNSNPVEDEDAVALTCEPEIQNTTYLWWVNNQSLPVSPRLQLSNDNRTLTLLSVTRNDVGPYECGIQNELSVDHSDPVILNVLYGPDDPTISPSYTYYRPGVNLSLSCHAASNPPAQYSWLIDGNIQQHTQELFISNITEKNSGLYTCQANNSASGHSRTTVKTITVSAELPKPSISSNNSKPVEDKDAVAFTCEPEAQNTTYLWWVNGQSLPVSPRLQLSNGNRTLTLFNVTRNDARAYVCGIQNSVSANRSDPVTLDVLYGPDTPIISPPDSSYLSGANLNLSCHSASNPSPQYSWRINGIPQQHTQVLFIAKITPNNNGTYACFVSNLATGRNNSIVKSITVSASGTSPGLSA
From the text: as §2

[11] = biological target: T8, human CEACAM6 on 293T cells …; test: flow cytometry on 293T-huCEACAM6 cells with against without 100 nM soluble CEACAM6
[12] = biological target: T8, human CEACAM6 on 293T cells …; test: flow cytometry on 293T-huCEACAM6 cells, Alexa Fluor 488 anti-human IgG, MFI
Procedure: as §1

Row | Binder | binding result [1] | EC50 [2] [nM] | EC50 [3] [nM] | binding result [4] | binding result [5] | binding result [6] | binding result [7] | Internalization of pHAb-dye-labelled antibody, MFI (37° C.-4° C.)/DAR [8] | binding result [9] | EC50 [5] [nM] | binding result [10] | fold change of EC50 at the presence of 100 nM soluble protein [11] [fold] | EC50 (read off the curve) [12] [nM]
1 | B1 | no binding | 33.4 | 0.01 | no binding | no binding | no binding | no binding | 1260 | no binding | – | – | – | –
2 | B2 | – | – | – | no binding | – | no binding | no binding | – | – | 0.01 | no binding | 7.3 | ~0.6
